Assay results taken from the Human Domainome abundance scans (Beltran et al. 2025).
± gives the uncertainty stated by the source.

B1: Intersectin-2, residues 1129 to 1183; numbered along this chain, Q9NZM3 (parent)
chain: VCQVIAMYDYAANNEDELSFSKGQLINVMNKDDPDWWQGEINGVTGLFPSNYVKM

Variants of: B1
Assay: abundance fitness (aPCA) (normalised: wild type 0, dead -1); higher = more abundant; growth selection in yeast, the domain comes from the species named
Details: Homo sapiens

| Variant | abundance fitness |
| --- | --- |
| A12P | -0.144 ± 0.046 |
| A12N | 0.052 ± 0.074 |
| A12E | -0.172 ± 0.062 |
| A12C | -0.115 ± 0.05 |
| A12M | -0.129 ± 0.033 |
| A12K | -0.012 ± 0.072 |
| A12G | -0.068 ± 0.041 |
| A12H | -0.221 ± 0.07 |
| A12F | -0.663 ± 0.11 |
| A12D | -0.503 ± 0.12 |
| A12L | -0.578 ± 0.049 |
| D9I | -0.594 ± 0.085 |
| D9A | 0.019 ± 0.045 |
| D9F | -0.364 ± 0.04 |
| D9C | -0.189 ± 0.049 |
| D9M | -0.177 ± 0.065 |
| D9L | -0.571 ± 0.05 |
| D9G | -0.061 ± 0.03 |
| D9Q | -0.133 ± 0.062 |
| D9N | -0.039 ± 0.034 |
| D9K | -0.189 ± 0.062 |
| D9T | -0.084 ± 0.051 |
| D9W | -0.383 ± 0.048 |
| D9Y | -0.371 ± 0.063 |

| Variant | abundance fitness |
| --- | --- |
| D9R | -0.131 ± 0.029 |
| D9P | -0.098 ± 0.059 |
| D9H | -0.025 ± 0.059 |
| D9S | -0.069 ± 0.027 |
| D9E | -0.117 ± 0.046 |
| D9V | -0.38 ± 0.04 |
| M7K | -0.139 ± 0.06 |
| M7I | 0.002 ± 0.041 |
| M7S | 0.029 ± 0.032 |
| M7D | 0.007 ± 0.06 |
| M7G | -0.081 ± 0.028 |
| M7W | -0.188 ± 0.043 |
| M7F | -0.168 ± 0.072 |
| M7E | -0.057 ± 0.053 |
| M7A | -0.078 ± 0.038 |
| M7N | -0.088 ± 0.067 |
| M7R | -0.115 ± 0.039 |
| M7V | -0.065 ± 0.045 |
| M7P | -0.897 ± 0.088 |
| M7C | -0.02 ± 0.055 |
| M7Y | -0.036 ± 0.052 |
| M7Q | -0.049 ± 0.053 |
| Q3A | -0.07 ± 0.046 |
| Q3R | -0.13 ± 0.042 |

| Variant | abundance fitness |
| --- | --- |
| Q3K | 0.002 ± 0.039 |
| Q3M | -0.053 ± 0.044 |
| Q3V | -0.042 ± 0.052 |
| Q3T | -0.047 ± 0.054 |
| Q3D | -0.19 ± 0.064 |
| Q3N | -0.169 ± 0.064 |
| Q3L | -0.134 ± 0.044 |
| Q3P | -0.116 ± 0.032 |
| Q3E | 0.081 ± 0.062 |
| Q3W | -0.076 ± 0.046 |
| Q3C | -0.066 ± 0.062 |
| Q3F | 0.027 ± 0.042 |
| Q3S | 0.012 ± 0.047 |
| Q3I | -0.006 ± 0.083 |
| Q3Y | -0.029 ± 0.064 |
| A6C | -0.154 ± 0.036 |
| A6N | -0.928 ± 0.14 |
| A6F | -1.03 ± 0.099 |
| A6R | -0.883 ± 0.056 |
| A6L | -1.02 ± 0.073 |
| A6D | -0.93 ± 0.13 |
| A6Y | -0.927 ± 0.19 |
| A6H | -0.923 ± 0.17 |
| A6V | -0.576 ± 0.048 |

| Variant | abundance fitness |
| --- | --- |
| A6G | -0.163 ± 0.038 |
| A6W | -1.02 ± 0.17 |
| A6Q | -0.966 ± 0.097 |
| A6S | -0.057 ± 0.033 |
| A6P | -0.585 ± 0.068 |
| A6T | 0.026 ± 0.047 |
| A6I | -0.988 ± 0.18 |
| V4S | -0.064 ± 0.029 |
| V4E | -0.405 ± 0.066 |
| V4A | -0.027 ± 0.038 |
| V4G | -0.041 ± 0.034 |
| V4I | -0.478 ± 0.042 |
| V4R | -0.458 ± 0.036 |
| V4W | -0.079 ± 0.029 |
| V4N | -0.688 ± 0.12 |
| V4D | -0.511 ± 0.084 |
| V4K | -0.62 ± 0.041 |
| V4F | -0.004 ± 0.032 |
| V4Q | -0.349 ± 0.055 |
| V4H | -0.205 ± 0.067 |
| V4T | -0.079 ± 0.044 |
| V4Y | 0.032 ± 0.038 |
| V4L | -0.297 ± 0.033 |
| I5D | -0.164 ± 0.037 |

| Variant | abundance fitness |
| --- | --- |
| I5R | -0.147 ± 0.04 |
| I5S | -0.134 ± 0.036 |
| I5Q | -0.085 ± 0.043 |
| I5E | -0.062 ± 0.052 |
| I5G | -0.457 ± 0.033 |
| I5V | -0.015 ± 0.037 |
| I5W | -0.056 ± 0.037 |
| I5T | 0.023 ± 0.03 |
| I5L | -0.132 ± 0.041 |
| I5K | -0.173 ± 0.049 |
| I5N | -0.186 ± 0.049 |
| I5A | -0.121 ± 0.035 |
| I5Y | -0.062 ± 0.058 |
| I5F | -0.022 ± 0.038 |
| I5H | -0.188 ± 0.063 |
| I5P | -0.531 ± 0.053 |
| I5M | -0.144 ± 0.038 |
| I5C | -0.077 ± 0.049 |
| A11S | -0.007 ± 0.027 |
| A11D | 0.007 ± 0.042 |
| A11C | -0.048 ± 0.056 |
| A11F | -0.055 ± 0.037 |
| A11E | 0.025 ± 0.052 |
| A11Q | -0.003 ± 0.052 |

| Variant | abundance fitness |
| --- | --- |
| A11Y | -0.111 ± 0.063 |
| A11L | -0.064 ± 0.031 |
| A11K | 0.013 ± 0.051 |
| A11M | -0.053 ± 0.057 |
| A11W | -0.117 ± 0.049 |
| A11V | -0.072 ± 0.03 |
| A11N | -0.016 ± 0.054 |
| A11R | -0.01 ± 0.04 |
| A11T | -0.041 ± 0.047 |
| A11P | -0.069 ± 0.038 |
| A11H | 0.042 ± 0.042 |
| A11G | -0.03 ± 0.03 |
| Y10G | -0.761 ± 0.044 |
| Y10H | -0.124 ± 0.078 |
| Y10I | -0.494 ± 0.069 |
| Y10R | -0.063 ± 0.032 |
| Y10V | -0.455 ± 0.036 |
| Y10T | -0.865 ± 0.08 |
| Y10D | -0.777 ± 0.11 |
| Y10W | -0.037 ± 0.037 |
| Y10N | -0.249 ± 0.051 |
| Y10P | -0.913 ± 0.14 |
| Y10S | -0.427 ± 0.035 |
| Y10K | -0.144 ± 0.04 |

| Variant | abundance fitness |
| --- | --- |
| Y10A | -0.66 ± 0.058 |
| Y10E | -0.853 ± 0.1 |
| Y10F | -0.084 ± 0.066 |
| Y10Q | -0.505 ± 0.068 |
| Y10M | -0.256 ± 0.039 |
| Y8P | -0.787 ± 0.14 |
| Y8N | 0.011 ± 0.047 |
| Y8V | -0.045 ± 0.036 |
| Y8C | -0.011 ± 0.057 |
| Y8K | 0.074 ± 0.053 |
| Y8F | 0.09 ± 0.063 |
| Y8L | -0.005 ± 0.04 |
| Y8W | -0.052 ± 0.05 |
| Y8A | -0.002 ± 0.037 |
| Y8S | 0.001 ± 0.036 |
| Y8E | -0.002 ± 0.042 |
| Y8R | 0.012 ± 0.033 |
| Y8Q | -0.084 ± 0.05 |
| Y8T | -0.122 ± 0.053 |
| Y8D | -0.197 ± 0.065 |
| Y8H | -0.162 ± 0.081 |
| Y8G | -0.063 ± 0.038 |
| Y8M | -0.011 ± 0.05 |
